Source: the supplement of paper PMC10126150
± gives the standard deviation of the averaged measurements.

Test system: ATP
Assay: switch fluorescence ratio, 500 uM ATP over buffer (Cy3 cluster intensity, sum of 5 cycles each) (fold (ratio)); higher = stronger signal-on switching upon ATP binding; sequences stand for … in TCGTCGGCAGCGTCAGATGTGTATAAGAGACAGTTTTTTTTTTTTTTTTTTTTTTTTT…TC
Conditions: aptamer strand: ATP DNA aptamer (quencher-CACCTGGGGGAGTATTGCGGAGGAAGG + anchor), 100 nM annealed; ATP concentration: 500 uM
Method in brief: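 Switching-strand clusters labelled with Cy3 on a modified Illumina MiSeq flow-cell were annealed to 100 nM quencher-labelled ATP aptamer, imaged in selection buffer, and re-imaged after 15 min with 500 uM ATP at 22 °C. This was done over five cycles with NaOH stripping and re-annealing in between. The fluorescence ratio is summed target-cycle over summed buffer-cycle Cy3 intensity per cluster, averaged per switch-domain sequence, excluding clusters outside 100-1000 RFU.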
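Further: ATP exposure 15 min at 22 °C before imaging.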

Sequence: GGATCTGGTG
- switch fluorescence ratio: 1.022 ± 0.0079

Sequence: CGTTGCCGCT
- switch fluorescence ratio: 0.934 ± 0.054

Sequence: AGGAGCGGCA
- switch fluorescence ratio: 1.018 ± 0.0095

Sequence: GGGTTGCTGG
- switch fluorescence ratio: 1 ± 0.03

Sequence: CAAGTTATGT
- switch fluorescence ratio: 1 ± 0.044

Sequence: TTCGTGTTAT
- switch fluorescence ratio: 0.995 ± 0.021

Sequence: GACGTGGTTT
- switch fluorescence ratio: 0.994 ± 0.046

Sequence: CTAATAGTTA
- switch fluorescence ratio: 0.972 ± 0.0099

Sequence: CTTACGCAGC
- switch fluorescence ratio: 1.59 ± 0.016

Sequence: CAGGTAGGAG
- switch fluorescence ratio: 0.985 ± 0.017

Sequence: CTGAAGGTTG
- switch fluorescence ratio: 0.9737 ± 0.0014

Sequence: CGGGGGTACG
- switch fluorescence ratio: 1.02 ± 0.074

Sequence: TGTAAGGAAC
- switch fluorescence ratio: 1.26 ± 0.35

Sequence: GGAGGGGGGC
- switch fluorescence ratio: 1.09 ± 0.16

Sequence: ATATGGGTTC
- switch fluorescence ratio: 1 ± 0.026

Sequence: CAAGGGTAGG
- switch fluorescence ratio: 1.04 ± 0.021

Sequence: AATACAGAGG
- switch fluorescence ratio: 1.0069 ± 0.00059

Sequence: CGATCGATAT
- switch fluorescence ratio: 0.998 ± 0.032

Sequence: GAGAGGGAGG
- switch fluorescence ratio: 0.979 ± 0.015

Sequence: TGACGGAGGC
- switch fluorescence ratio: 1.06 ± 0.051

Sequence: TTGGTGAAGG
- switch fluorescence ratio: 1.01 ± 0.023

Sequence: ATGGCCTTAA
- switch fluorescence ratio: 0.982 ± 0.028

Sequence: CACGGAGGGG
- switch fluorescence ratio: 0.9875 ± 0.0095

Sequence: CCTAACTTAG
- switch fluorescence ratio: 1.021 ± 0.0029

Sequence: AATGGCGGGA
- switch fluorescence ratio: 1.021 ± 0.0015

Sequence: TGGAAGAGGC
- switch fluorescence ratio: 1.47 ± 0.64

Sequence: GGATTGTTTT
- switch fluorescence ratio: 0.996 ± 0.023

Sequence: TTTATACCAG
- switch fluorescence ratio: 1.004 ± 0.0066

Sequence: CAAGTCTATG
- switch fluorescence ratio: 0.973 ± 0.036

Sequence: CCTGAATTTC
- switch fluorescence ratio: 1.12 ± 0.14

Sequence: GTGTGAGTTG
- switch fluorescence ratio: 0.961 ± 0.022

Sequence: TCCTATATTG
- switch fluorescence ratio: 0.986 ± 0.0023

Sequence: TCAAATAGGA
- switch fluorescence ratio: 1.01 ± 0.012

Sequence: CAAAAGGCAG
- switch fluorescence ratio: 0.984 ± 0.048

Sequence: GATAATTCTG
- switch fluorescence ratio: 1 ± 0.024

Sequence: TTTGAGTCTT
- switch fluorescence ratio: 1 ± 0.039

Sequence: TTGCGAGAAC
- switch fluorescence ratio: 1.17 ± 0.18

Sequence: TATTTGGTAT
- switch fluorescence ratio: 0.9862 ± 0.0075

Sequence: GGGCTAATGT
- switch fluorescence ratio: 0.988 ± 0.047

Sequence: GATGTTTTCT
- switch fluorescence ratio: 0.982 ± 0.054

Sequence: GTTGAACTTT
- switch fluorescence ratio: 1.02 ± 0.046

Sequence: GCGTAAGGGT
- switch fluorescence ratio: 0.985 ± 0.012

Sequence: CAAATTGGAC
- switch fluorescence ratio: 1.03 ± 0.0071

Sequence: TTCGGTTTTT
- switch fluorescence ratio: 1.02 ± 0.011

Sequence: ACTTGATCGC
- switch fluorescence ratio: 1.03 ± 0.03

Sequence: GGGTGCATAG
- switch fluorescence ratio: 1.03 ± 0.045

Sequence: TCTTTTACTG
- switch fluorescence ratio: 1.01 ± 0.033

Sequence: TCGTGAAGAG
- switch fluorescence ratio: 0.987 ± 0.012

Sequence: ATGTTCGACA
- switch fluorescence ratio: 0.965 ± 0.027

Sequence: AAAGGAGATT
- switch fluorescence ratio: 0.996 ± 0.028

Sequence: AAGTTGTGAC
- switch fluorescence ratio: 0.997 ± 0.028

Sequence: CAGAAGGGGA
- switch fluorescence ratio: 1.09 ± 0.079

Sequence: TGGGGCGGGA
- switch fluorescence ratio: 1.02 ± 0.08

Sequence: CGGGCTTCTA
- switch fluorescence ratio: 1.04 ± 0.053

Sequence: CGTTGCGCGT
- switch fluorescence ratio: 0.993 ± 0.037

Sequence: TGCCACGCTC
- switch fluorescence ratio: 1.06 ± 0.029

Sequence: TGGATGAAGT
- switch fluorescence ratio: 1 ± 0.047

Sequence: TTTGTTGTAA
- switch fluorescence ratio: 1.01 ± 0.034

Sequence: ATTGAAGCGG
- switch fluorescence ratio: 1.01 ± 0.05

Sequence: TTGGGTTTG
- switch fluorescence ratio: 0.964 ± 0.011

Sequence: CAGGGTACGA
- switch fluorescence ratio: 1.05 ± 0.012

Sequence: TAGTGGGTCC
- switch fluorescence ratio: 1.02 ± 0.037

Sequence: GAGCCGCCAG
- switch fluorescence ratio: 1.03 ± 0.045

Sequence: ATTTATAATT
- switch fluorescence ratio: 0.992 ± 0.028

Sequence: GGGGATGTCT
- switch fluorescence ratio: 1.03 ± 0.03

Sequence: TGGCTGGTAA
- switch fluorescence ratio: 0.991 ± 0.021

Sequence: TTGAGGGTTT
- switch fluorescence ratio: 0.994 ± 0.029

Sequence: TTACATATGT
- switch fluorescence ratio: 1.02 ± 0.021

Sequence: GCCGGGCTTG
- switch fluorescence ratio: 1.02 ± 0.017

Sequence: AAATTTGGGG
- switch fluorescence ratio: 1 ± 0.038

Sequence: GGCCGGAATT
- switch fluorescence ratio: 1.17 ± 0.19

Sequence: TTTTCACGCA
- switch fluorescence ratio: 1.57 ± 0.53

Sequence: GGGAATCAAG
- switch fluorescence ratio: 0.9862 ± 0.0097

Sequence: TTCGTGGGTG
- switch fluorescence ratio: 1.03 ± 0.075

Sequence: TATGTGAGTA
- switch fluorescence ratio: 1.01 ± 0.013

Sequence: ATGCGACGGC
- switch fluorescence ratio: 1.05 ± 0.028

Sequence: ATATATTGGT
- switch fluorescence ratio: 0.9922 ± 0.0046

Sequence: GGAGTGGGGG
- switch fluorescence ratio: 0.984 ± 0.036

Sequence: GACATTGGCT
- switch fluorescence ratio: 0.948 ± 0.03

Sequence: CACGAGTTAG
- switch fluorescence ratio: 1.0257 ± 0.00055

Sequence: AAGGACTTGG
- switch fluorescence ratio: 1.01 ± 0.014

Sequence: AGTTATCAGG
- switch fluorescence ratio: 1.06 ± 0.024

Sequence: TCGAAACTGG
- switch fluorescence ratio: 1.09 ± 0.11

Sequence: TTTCGACCGA
- switch fluorescence ratio: 1.03 ± 0.033

Sequence: TATGGGGCTT
- switch fluorescence ratio: 0.992 ± 0.017

Sequence: CTGGAAATGG
- switch fluorescence ratio: 1.033 ± 0.0095

Sequence: CCCCCGGTTT
- switch fluorescence ratio: 1.12 ± 0.044

Sequence: TACCTGGGTA
- switch fluorescence ratio: 0.948 ± 0.028

Sequence: GGTTAAGGTC
- switch fluorescence ratio: 1 ± 0.029

Sequence: TTATGTTGGG
- switch fluorescence ratio: 1.013 ± 0.0047

Sequence: CGGCTAGACG
- switch fluorescence ratio: 0.9994 ± 0.0057

Sequence: GTAAAAGGGG
- switch fluorescence ratio: 0.996 ± 0.042

Sequence: TTAAAAATTT
- switch fluorescence ratio: 0.976 ± 0.025

Sequence: CTCCGAGATG
- switch fluorescence ratio: 5.85 ± 0.59

Sequence: TTTAAGGGGG
- switch fluorescence ratio: 1.15 ± 0.28

Sequence: TATGATGTTA
- switch fluorescence ratio: 0.9931 ± 0.0093

Sequence: TACGTTGCAT
- switch fluorescence ratio: 1.05 ± 0.055

Sequence: GGTATTGGGA
- switch fluorescence ratio: 0.989 ± 0.018

Sequence: TGCCGTAGGG
- switch fluorescence ratio: 1.04 ± 0.041

Sequence: ATCTGAGTAG
- switch fluorescence ratio: 0.999 ± 0.023
